The results in this text go back to PMC4528709, “Determinants in HIV-2 Env and tetherin required for functional interaction” (Retrovirology, 2015).

In this test the target is T1, GFP-tagged ROD10 Env_(Y707A) (HIV-2 (strain ROD10), UniProt P04577 20-858, Y707A).
T1 construct: Env protein of HIV-2 strain ROD10 with a point mutation that disrupts an endocytosis motif in the cytoplasmic tail (pROD10_(Y707A) Env); also called Y707A mutant; source: 293T, co-transfected (2 ug plasmid), in lysate; not shown: eGFP, C-terminal, kept
T1 sequence (looked up): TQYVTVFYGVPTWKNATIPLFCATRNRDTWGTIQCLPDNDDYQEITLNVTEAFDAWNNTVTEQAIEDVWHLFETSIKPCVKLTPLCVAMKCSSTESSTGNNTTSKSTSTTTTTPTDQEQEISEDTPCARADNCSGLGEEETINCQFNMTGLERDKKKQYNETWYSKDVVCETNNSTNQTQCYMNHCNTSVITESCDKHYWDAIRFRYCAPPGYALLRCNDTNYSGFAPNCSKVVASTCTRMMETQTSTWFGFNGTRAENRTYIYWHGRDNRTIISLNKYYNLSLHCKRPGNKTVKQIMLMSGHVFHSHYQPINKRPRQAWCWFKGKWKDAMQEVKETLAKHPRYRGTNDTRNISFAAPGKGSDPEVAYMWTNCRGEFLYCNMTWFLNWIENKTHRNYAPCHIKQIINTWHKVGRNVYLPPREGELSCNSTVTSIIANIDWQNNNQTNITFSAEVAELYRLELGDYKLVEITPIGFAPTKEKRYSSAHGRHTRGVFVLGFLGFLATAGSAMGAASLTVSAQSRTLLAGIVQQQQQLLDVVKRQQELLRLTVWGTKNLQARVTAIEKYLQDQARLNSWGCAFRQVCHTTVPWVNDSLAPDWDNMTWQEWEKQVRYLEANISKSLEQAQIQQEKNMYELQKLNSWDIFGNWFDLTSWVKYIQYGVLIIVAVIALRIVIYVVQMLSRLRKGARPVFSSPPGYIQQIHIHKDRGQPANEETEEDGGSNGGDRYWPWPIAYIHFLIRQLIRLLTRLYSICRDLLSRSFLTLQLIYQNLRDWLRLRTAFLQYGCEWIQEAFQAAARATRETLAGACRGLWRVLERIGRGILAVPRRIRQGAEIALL
The experiment in a line: co-IP; quantification of tetherin immunoprecipitated by GFP-tagged Env, corrected for the cellular level of the Env protein, n = 3 experiments, data not shown. The following applies: partners not purified.

B1: tetherin/BST-2 (natural protein)
chain: MASTSYDYCRVPMEDGDKRCKLLLGIGILVLLIIVILGVPLIIFTIKANSEACRDGLRAVMECRNVTHLLQQELTEAQKGFQDVEAQAATCNHTVMALMASLDAEKAQGQKKVEELEGEITTLNHKLQDASAEVERLRRENQVLSVRIADKKYYPSSQDSS
notes: tetherin/BST-2, human; untagged expression plasmid described in earlier work [20, 29, 38]; also called wild-type tetherin; source: 293T, co-transfected (200 ng plasmid), in lysate
As to B1, the “efficiency at immunoprecipitating tetherin relative to the WT ROD10 Env” value was 67%.
